The text below walks through data of the supplement of paper PMC10567573.

This series is described as follows: protein stability index of a GFP-peptide fusion (GPS, HEK-293T) (PSI 1-6); higher = more stable.
[1] abbreviates: treatment: DMSO, c terminus: a fixed tail appended.
[2] abbreviates: treatment: MLN4924 1 uM, 8 h, c terminus: a fixed tail appended.
Where [3] appears, read: treatment: DMSO, c terminus: native.
[4] abbreviates: treatment: MLN4924 1 uM, 8 h, c terminus: native.

± gives the standard deviation.
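Further: 24-mer peptide tiles fused after GFP, lentivirally expressed, FACS-sorted into six equal bins by GFP/DsRed ratio, decoded by Illumina sequencing, PSI is the read-weighted mean bin number.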

Regarding LMSAQTITSETTSTTTTTHITKTV [EPB41L3], the protein stability index stood at 4.5 ± 0.26 under setting [1] and 4.68 ± 0.14 under setting [2].

For the sequence LYIQSHYQLELQCCIDWTHVTDPL [SMG5], the protein stability index reads like this: under setting [1], 3.31 ± 0.46; under setting [2], 3.06 ± 0.42.

LIALANRFCLPHLVALAEQHAVQE [RHOBTB1]: the protein stability index was found to be 3.16 ± 0.47 under setting [1] and 3.33 ± 0.47 under setting [2].

In the case of TEGNPRWEQTHLTYRIENYTPDLP [MMP1], the protein stability index was found to be 3.37 ± 0.099 under setting [1] and 3.51 ± 0.35 under setting [2].

Consider FSKSKELHPDRDPGNPSLHSRFVE [DNAJC4], for which the protein stability index was 3.91 ± 0.25 under setting [1] and 4.22 ± 0.12 under setting [2].

With QGTELWVAERGTTQGCHPAWEPRS [ZNF8], the protein stability index by setting is: under setting [1], 3.24 ± 0.16; under setting [2], 3.1 ± 0.27.

Turning to LAVLDWNQRAMDLYKALGAQDLTE [SAT2], the protein stability index by setting is: under setting [1], 2.41 ± 0.24; under setting [2], 2.42 ± 0.19.

Regarding AVPVSTSKPSSDLLDLQPDFSSGG [SNAP91], the protein stability index reads like this: under setting [1], 4.76 ± 0.17; under setting [2], 4.84 ± 0.14.

As for YDSQPQDVLGIRQLERPLPLTSVC [TRAF3IP2], the protein stability index was 3.68 ± 0.065 under setting [1] and 3.74 ± 0.23 under setting [2].

With ERKNAEMYKLSSEQFHEAASKMES [CHCHD6], the protein stability index reads like this: under setting [1], 4.83 ± 0.27; under setting [2], 5.08 ± 0.16.

For the sequence LMADKVLRWERAWFPPAIMGVVSL [ARL6IP1], the protein stability index by setting is: under setting [1], 3.13 ± 0.66; under setting [2], 2.45 ± 0.86.

For EVVNRKFGNRIKVLRSRIRFIHLV [POMT2], the protein stability index by setting is: under setting [1], 2.56 ± 0.22; under setting [2], 2.43 ± 0.43.

For KETEERTDGERVAEVAPEERENVA [SDE2], the protein stability index was found to be 5.64 ± 0.17 under setting [1] and 5.33 ± 0.42 under setting [2].

In the case of SPFAQFACDNGLNVRGGKPDDITV [PPTC7], the protein stability index reads like this: under setting [1], 4.22 ± 0.23; under setting [2], 4.14 ± 0.16.

Turning to YRLLKCAPRGKNGFTPLHMAVDKD [FEM1A], the protein stability index reads like this: under setting [1], 2.84 ± 0.22; under setting [2], 2.96 ± 0.14.

Consider DMTFEEEAQLLQLKVKCLNNLAAS [FKBP8], for which the protein stability index reads like this: under setting [1], 3.42 ± 0.27; under setting [2], 3.54 ± 0.46.

Regarding IEILPNVCYTACATLKGPDSHYGT [BTBD1], the protein stability index by setting is: under setting [1], 2.26 ± 0.19; under setting [2], 2.31 ± 0.2.

For ESPSFLSLRKGASLSNGQGSRVLH [NCK2], the protein stability index runs as follows: under setting [1], 3.83 ± 0.27; under setting [2], 3.92 ± 0.16.

With DNAVQGLRRHEILQWVLQTDSQQ [LRRC59], the protein stability index was 3.37 ± 0.2 under setting [3] and 3.44 ± 0.24 under setting [4].

CKLTCQAQALGYYYVLEPRVVDGT [ADAMTS4]: the protein stability index came to 2.86 ± 2 under setting [1] and 2.77 ± 1.1 under setting [2].

On to SVGSYLDTLADDVPGHQTPSDLDQ [LURAP1L], for which the protein stability index by setting is: under setting [1], 5.28 ± 0.23; under setting [2], 5.34 ± 0.24.

For HHSFPYDYSASEYRWHINFTTFFI [SCD], the protein stability index reads like this: under setting [1], 3.06 ± 0.5; under setting [2], 2.86 ± 0.41.

For the sequence IQSKLGIVSLLLGTIHALIFAWNK [STEAP1], the protein stability index was 2.35 ± 0.31 under setting [1] and 2.22 ± 0.31 under setting [2].

In turn, APDFVGDILWEHLEQMIKENQEKT [ETS2] had a protein stability index under setting [1] of 4.44 ± 0.13 and a protein stability index under setting [2] of 4.58 ± 0.14.

Take RRTPPGQQRPHPRSHSREPRAERK [ELOA2]: the protein stability index by setting is: under setting [1], 5.332 ± 0.008; under setting [2], 5.58 ± 0.17.

Sequence FWNIKQMWDTKTLGLRQHHCRKCG [WDFY1] had a protein stability index under setting [1] of 2.64 ± 0.25 and a protein stability index under setting [2] of 2.86 ± 0.49.

RGRAVLREAGFHQYEVSNFARNGA [RSAD1] had a protein stability index under setting [1] of 3.36 ± 0.54 and a protein stability index under setting [2] of 3.37 ± 0.48.

As to SRNEFDRTIAETEAAYLKILESSQ [SSNA1], the protein stability index under setting [1] turned out to be 3.95 ± 0.22 and the protein stability index under setting [2] worked out at 4.04 ± 0.34.

Regarding GCDPLVKPVGRQACDLQPCPTEPP [ADAMTSL2], the protein stability index was found to be 4.2 ± 0.049 under setting [1] and 4.54 ± 1.2 under setting [2].

Turning to VDLSRILNEMRDQYEKMAEKNRKD [KRT17], the protein stability index is, setting by setting: under setting [1], 3.52 ± 0.24; under setting [2], 3.76 ± 0.36.

As for PDVTQLTPPSHDLTDNIFPRLVC [ANKRD17], the protein stability index is, setting by setting: under setting [3], 2.45 ± 0.28; under setting [4], 2.4 ± 0.25.

As to MLPGVLAGVSAEESWAGPQPLETL [SCNN1D], the protein stability index by setting is: under setting [1], 3.38 ± 0.34; under setting [2], 3.53 ± 0.37.

LEGEEENELTLNEKNFFPEYNYDW [CHGB]: the protein stability index by setting is: under setting [1], 4.21 ± 0.37; under setting [2], 4.46 ± 0.28.

Turning to LSDREVVNLFLHFTVNPKPRVEYI [BTBD1], the protein stability index by setting is: under setting [1], 2.98 ± 0.73; under setting [2], 2.5 ± 0.26.

Regarding QLLEQKQAYWAQAEDTAAPAEESK [CBY2], the protein stability index is 5.01 ± 0.25 under setting [1] and 4.96 ± 0.23 under setting [2].

For the sequence PYPASKADIPSVAFSSRLGGSRGA [DCAF4], the protein stability index by setting is: under setting [1], 3.71 ± 0.22; under setting [2], 3.8 ± 0.41.

As for DIRYLLGYVSQQGGQRSTPLIIAA [FEM1B], the protein stability index by setting is: under setting [1], 2.5 ± 0.41; under setting [2], 2.62 ± 0.21.

For the sequence LGYAVSTFAMVKGYFFPTSARDCK [DHCR7], the protein stability index stood at 2.09 ± 0.11 under setting [1] and 2.09 ± 0.13 under setting [2].

Consider ELSGAPRCHTVPCAGSTALQEPGE [PXN], for which the protein stability index is 4.9 ± 0.28 under setting [1] and 5.05 ± 0.32 under setting [2].

Regarding ICDKHWTAKNSRVVCGMFGFPGER [LOXL2], the protein stability index was found to be 2.42 ± 0.34 under setting [1] and 2.42 ± 0.35 under setting [2].

On to FVRLFVDENLDRMVPISKQPKEKI [NOL4L], for which the protein stability index under setting [1] turned out to be 2.41 ± 0.098 and the protein stability index under setting [2] is 2.65 ± 0.12.

IKNDKYGPWLEWEIMLQYCFPRLD [PRIM1]: the protein stability index under setting [2] came out at 3 ± 1.

With RRRGSDPASGEVEASQLRRLNIKK [TMEM40], the protein stability index was determined as 5.26 ± 0.23 under setting [1] and 5.02 ± 0.24 under setting [2].

As to RILQDEQYLMASDMAGKIKLWDLR [DCAF4], the protein stability index runs as follows: under setting [1], 2.75 ± 0.34; under setting [2], 3.01 ± 0.12.

Turning to LRNITNSQAPDGRRKSEAGSGAAS [CDC25B], the protein stability index was 4.89 ± 0.24 under setting [1] and 5.1 ± 0.16 under setting [2].

In the case of LLSILPSLLGLLSFPRNNISYLVL [JAGN1], the protein stability index by setting is: under setting [1], 3.155 ± 0.027; under setting [2], 3.1 ± 0.43.

Turning to ACGDAFTVAIGAESEVYSWGKGAR [NEK8], the protein stability index reads like this: under setting [1], 2.84 ± 0.23; under setting [2], 2.77 ± 0.3.

In the case of PTFKSFEERVETTVTSLKTKVGGT [TPD52L1], the protein stability index came to 4.64 ± 0.25 under setting [1] and 4.65 ± 0.033 under setting [2].

KYPSHSFIGEESVAAGEKSILTDN [IMPA1] displayed a protein stability index under setting [1] of 4.66 ± 0.24 and a protein stability index under setting [2] of 4.75 ± 0.1.

For the sequence GLLQGTSAETSGGLLICLPREQAA [SEPHS2], the protein stability index runs as follows: under setting [1], 3.07 ± 0.16; under setting [2], 3.29 ± 0.18.

MKMEEAVGKVEELIESEAPPKASE [C18orf25]: the protein stability index was determined as 5.59 ± 0.15 under setting [1] and 5.48 ± 0.57 under setting [2].

As to RDQQVEAAQRALVEVLGPYEPLLS [RETREG3], the protein stability index is, setting by setting: under setting [1], 3.9 ± 0.17; under setting [2], 4.14 ± 0.17.

On to ESRACLERIQELEDLLAKEKDNSR [LMNB1], for which the protein stability index is, setting by setting: under setting [1], 5.04 ± 0.46; under setting [2], 5.15 ± 0.27.

For the sequence STLGGDIRESDPEQAPAPGEATAA [TBX6], the protein stability index reads like this: under setting [1], 5.65 ± 0.14; under setting [2], 5.53 ± 0.38.

On to LIYGSMEMFPAAQQLYRHGKAYRF [JAGN1], for which the protein stability index reads like this: under setting [1], 2.28 ± 0.36; under setting [2], 2.21 ± 0.093.

With VCEVQVHGGSLLGKKYNWSCDDLM [GFOD1], the protein stability index was 2.58 ± 0.16 under setting [1] and 2.35 ± 0.32 under setting [2].

For the sequence LGRSHDTVQEAATSRRARASKKTA [MFSD9], the protein stability index runs as follows: under setting [1], 5.2 ± 0.21; under setting [2], 5.31 ± 0.16.

Turning to HIGHVGWDPNTGFDLNNLDPELKN [WASL], the protein stability index is, setting by setting: under setting [1], 4.42 ± 0.24; under setting [2], 4.47 ± 0.32.

Turning to ESYTKMCDPGMTAFEPEALGNLVE [CAMK2A], the protein stability index amounted to 4.1 ± 0.31 under setting [1] and 4.16 ± 0.33 under setting [2].

For SWSALWNITDETPDNCEMFLNFNG [ZER1], the protein stability index by setting is: under setting [1], 2.61 ± 0.25; under setting [2], 2.79 ± 0.23.

On to QSKTASDKSPSTVRDQGPSIPLTP [FBF1], for which the protein stability index under setting [1] amounted to 5.07 ± 0.21 and the protein stability index under setting [2] is 5.15 ± 0.099.

Take LTICYPEYAGSNTYEEAAAYIQCQ [GNAI1]: the protein stability index runs as follows: under setting [1], 2.46 ± 0.25; under setting [2], 2.43 ± 0.46.

In the case of MTEAALALSEQKAQDLGELLATAE [LRRC45], the protein stability index under setting [1] was determined as 5.16 ± 0.13 and the protein stability index under setting [2] is 5.08 ± 0.13.

On to QQGEYSEAIPILRAALKLEPSNKT [FKBP8], for which the protein stability index is, setting by setting: under setting [1], 4.12 ± 0.19; under setting [2], 4.14 ± 0.11.

For the sequence QRLEEQERRHREEKERRKKQQWEI [RSPH3], the protein stability index runs as follows: under setting [1], 4.45 ± 0.28; under setting [2], 4.54 ± 0.31.

On to AEGALEEVPLEVLRQRESKWLDML [TBC1D10A], for which the protein stability index under setting [1] worked out at 4.09 ± 0.88 and the protein stability index under setting [2] is 3.91 ± 0.47.

Regarding PPPNRMYPPPPPALPSSAPSGPPP [WASL], the protein stability index is, setting by setting: under setting [1], 5.01 ± 0.3; under setting [2], 5.08 ± 0.13.

On to VEGEQQAWFGFAGTPGYLSPEVLR [CAMK2A], for which the protein stability index under setting [1] stood at 3.48 ± 0.21 and the protein stability index under setting [2] was determined as 3.49 ± 0.4.

Take LEVERQENEQRRLFIQKEEQLQQI [MNAT1]: the protein stability index is, setting by setting: under setting [1], 4.6 ± 0.36; under setting [2], 4.64 ± 0.17.

Consider LPPSPPPSPASEQTVTVEEAAGGE [MAP2], for which the protein stability index under setting [1] was found to be 5.4 ± 0.27 and the protein stability index under setting [2] was 5.51 ± 0.16.

As for EVHERNDGIDPFPLLMNRQRVPKV [EFHC1], the protein stability index worked out at 3.67 ± 0.31 under setting [1] and 3.64 ± 0.3 under setting [2].

For the sequence SPLQTIGEEQTQNPYTELLVLKAH [WDR41], the protein stability index reads like this: under setting [1], 3.78 ± 0.078; under setting [2], 3.75 ± 0.3.
